# According to paper PMC8786823, “Flanking sequences influence the activity of TET1 and TET2 methylcytosine dioxygenases and affect genomic 5hmC patterns”:
# T1: UHRF2 SRA domain (human, UniProt Q96PU4 419-648)
# T1 sequence: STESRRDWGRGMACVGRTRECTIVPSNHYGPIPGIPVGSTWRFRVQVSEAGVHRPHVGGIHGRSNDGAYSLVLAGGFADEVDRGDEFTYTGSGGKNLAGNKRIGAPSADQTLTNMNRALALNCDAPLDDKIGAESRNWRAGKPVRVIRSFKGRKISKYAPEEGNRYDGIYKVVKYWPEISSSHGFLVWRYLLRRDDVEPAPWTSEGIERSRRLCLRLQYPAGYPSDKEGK
# B1: TET-disf-hmC/TET-disf-rev (dsDNA)
# DNA 1: GAAGCTGGGACGCGCGCCGGGAGAGTGCAA
# DNA 2: TTGCACTCTCCCGGCGCGCGTCCCAGCTTC
# modifications: 5hmC at position 15 of strand 1 (hemihydroxymethylated CpG)
# Biological target: T1, UHRF2 SRA domain
# Test: EMSA; 0.5 uM DNA; preferred over mC and unmodified DNA in the same context; 20 mM HEPES pH 7.9, 100 mM NaCl, 2 mM MgCl2, 2 mM DTT, 0.1% NP-40, 5% glycerol; 30 min on ice; 6% PAGE in 0.25X TBE, GelRed stain
# Settings: protein: recombinant; tags: His; blunt
binder,measurement,value
B1,binding result,binds
